CN116173202A (BEIJING DONGFANG BIOTECH CO LTD, dated 2023)
Numbering of substitutions follows the chain as printed. Like-named read-outs stand apart in the source and are kept apart here.

B1: 人源化抗体HA-Ⅱ (human IgG1 / human Ck) (antibody, V domains shown)
VH: EVQLVESGGGLVKPGGSLRLSCAASGFTFSSYTMSWVRQAPGKGLEWVATISSGGTYTYYPDSVKGRFTISRDNAKNSLYLQMNSLRAEDTAVYYCARDGYDGFDYWGQGTTVTVSS
VL: DIVMTQTPLSLSVTPGQPASISCRSSQSLAHSNGNTYLHWYLQKPGQSPQLLIYKVSNRFSGVPDRFSGSGSGTDFTLKISRVEAEDVGVYFCSQSTHVPTFGGGTKVEIKR
B2: 人源化抗体HA-Ⅲ (human IgG1 / human Ck) (antibody, V domains shown)
VH: B1 VH with A97T
VL: B1 VL with Q50K
B3: 人源化抗体HA-Ⅰ (human IgG1 / human Ck) (antibody, V domains shown)
VH: B1 VH with A49S
VL: B1 VL with F92Y
B4: MA-Ⅰ 鼠源抗LILRB4单克隆抗体 (mouse IgG1 / mouse Ck) (antibody)
heavy: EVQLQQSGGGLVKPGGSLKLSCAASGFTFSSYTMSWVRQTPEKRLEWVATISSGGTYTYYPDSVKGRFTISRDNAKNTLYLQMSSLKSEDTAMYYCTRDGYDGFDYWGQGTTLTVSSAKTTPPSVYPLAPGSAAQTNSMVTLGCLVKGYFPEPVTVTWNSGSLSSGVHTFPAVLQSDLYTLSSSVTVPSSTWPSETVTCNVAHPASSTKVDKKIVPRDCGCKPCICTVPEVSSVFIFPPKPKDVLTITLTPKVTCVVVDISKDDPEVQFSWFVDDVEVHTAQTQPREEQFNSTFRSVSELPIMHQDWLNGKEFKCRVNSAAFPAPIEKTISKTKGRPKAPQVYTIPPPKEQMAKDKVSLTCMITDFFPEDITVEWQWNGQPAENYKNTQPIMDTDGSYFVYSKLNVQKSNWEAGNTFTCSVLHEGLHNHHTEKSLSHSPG
light: DIVMTQTTLSLPVSPGDQASISCRSSQSLAHSNGNTYLHWYLQKPGQSPKLLIYKVSNRFSGVPDRFSGSGSGTDFTLKISRVEAEDLGVYFCSQSTLVPTFGGGTKLEIKADAAPTVSIFPPSSEQLTSGGASVVCFLNNFYPKDINVKWKIDGSERQNGVLNSWTDQDSKDSTYSMSSTLTLTKDEYERHNSYTCEATHKTSTSPIVKSFNRNEC
B5: MB-Ⅰ 鼠源抗LILRB4单克隆抗体 (mouse IgG1 / mouse Ck) (antibody)
heavy: QVQLQESGAELVKPGASVKLSCKASGYTFTNYWMHWVKQRPGQGLEWIGEINPSNGRTNYNEKFKTKATLTVDKSSSTAYMQLSSLTSEDSAVYYCARWGQLGLREGYYAVDYWGQGTSVTVSSAKTTPPSVYPLAPGSAAQTNSMVTLGCLVKGYFPEPVTVTWNSGSLSSGVHTFPAVLQSDLYTLSSSVTVPSSTWPSETVTCNVAHPASSTKVDKKIVPRDCGCKPCICTVPEVSSVFIFPPKPKDVLTITLTPKVTCVVVDISKDDPEVQFSWFVDDVEVHTAQTQPREEQFNSTFRSVSELPIMHQDWLNGKEFKCRVNSAAFPAPIEKTISKTKGRPKAPQVYTIPPPKEQMAKDKVSLTCMITDFFPEDITVEWQWNGQPAENYKNTQPIMDTDGSYFVYSKLNVQKSNWEAGNTFTCSVLHEGLHNHHTEKSLSHSPG
light: DIVMTQSPSSLSASLGDRVTISCRASQDISNYLNWYQQKPDGTVKLLIYYTSRLHSGVPSRFSGSGSGTDYSLTISNLEQEDIATYFCQQGNTLPPTFGGGTKLEIKADAAPTVSIFPPSSEQLTSGGASVVCFLNNFYPKDINVKWKIDGSERQNGVLNSWTDQDSKDSTYSMSSTLTLTKDEYERHNSYTCEATHKTSTSPIVKSFNRNEC

Legend:
Assay in all cases: cell-based or functional assay
[1] = biological target: T1, 人单核细胞白血病细胞(THP-1)表面LILRB4 (human, UniProt Q8NHJ6 22-448)
[2] = biological target: T1, 人单核细胞白血病细胞(THP-1)表面LILRB4; remark: listed apart in the source
[3] = biological target: T1, 人单核细胞白血病细胞(THP-1)表面LILRB4; remark: listed apart in the source

Binder | IC50, 生物学活性检测(报告基因), THP-1-NF-κB-Luc cells with ApoE [1] | IC50, 抑制THP-1分泌ARG1 (arginase activity in supernatant, ApoE 0.5μg/mL) [2] | IC50, 抑制THP-1分泌ARG1 (arginase activity in supernatant, ApoE 0.5μg/mL) [3]
B1 | 2.68 µg/mL | 250 µg/mL | 
B2 | 3.44 µg/mL | 98.5 µg/mL | 
B3 | 0.756 µg/mL | 31.2 µg/mL | 
B4 |  |  | 23.9 µg/mL
B5 |  |  | 46 µg/mL
